{"source": "patent US9724388B2", "about": "“FGF-18 compound dosing regimen” (MERCK PATENT GMBH, priority 2014, dated 2017)", "molecules": {"B1": {"name": "trFGF-18: recombinant truncated form of human FGF-18 (170 amino acids, SEQ ID NO: 2), produced in E. coli (protein)", "chain": "MEENVDFRIHVENQTRARDDVSRKQLRLYQLYSRTSGKHIQVLGRRISARGEDGDKYAQLLVETDTFGSQVRIKGKETEFYLCMNRKGKLVGKPDGTSKECVFIEKVLENNYTALMSAKYSGWYVGFTKKGRPRKGPKTRENQQDVHFMKRYPKGQPELQKPFKYTTVTK", "modifications": "Recombinant truncated FGF-18(trFGF-18)"}}, "key": {"[1]": {"system": "medial meniscal tear in the right knee joint", "format": "in vivo, rat", "details": "for overall morphology: three injections", "experimental": "After the sacrifice, the right knee was removed and decalcified in 5% formic acid for 4-6 d before cutting in half in the frontal plane and embedding in paraffin wax. Three sections were cut in 200 μm steps, stained with toluidine blue, and analyzed using ImagePro PIus™ software (Media Cybernetics). In scoring the three sections of the joint, the worst-case scenario for the two halves on each slide was determined for the cartilage lesion as the cartilage degeneration width (μm). This reflects the areas of tibial cartilage lesion in which both chondrocyte and proteoglycan loss extend ≧50% of the cartilage thickness. The measurement was taken over the area of greatest lesion severity in each of the three zones across the tibial surface.\nA treatment group Mean±SE for each score and measurement was determined.\nData was analyzed using a one-way analysis of variance (1-way ANOVA) or Kruskal-Wallis test (non-parametric), along with an appropriate multiple comparison post-test. Right knee caliper measurements were compared to left using a Student's t-test. Unless indicated, Bolder BioPATH, Inc. performs statistical analysis on raw (untransformed) data only. […] Significance for all tests was set at p≦0.05. Comparisons were made between each group and the vehicle control group, as well as between pairs.\nMale Lewis rats underwent surgery (under anesthesia with isoflurane) to induce a medial meniscal tear in the right knee joint. Animals were dosed IA with vehicle or FGF-18 on one of two different regimens (see table below), then terminated on day 105. Knees had caliper measurements taken at baseline and days 21, 42, 56, 84, and 105. Serum was evaluated for α2macroglobulin levels at baseline and on days 21, and 105, as well as one week after the final dose (day 42 or 84). Right knees were collected for histopathology evaluation."}, "[2]": {"system": "full-thickness defect in the articular cartilage of the trochlear groove", "format": "in vivo, rabbit", "details": "for ICRS gross cartilage score: mean +/- SE", "excerpt": "60 adult male, naïve, New Zealand White rabbits were used for this study. Animals were approximately 3-4 months of age. Rabbits underwent for creation of the cartilage defect in the right knee. A 2 mm by 6 mm full-thickness defect was made in the articular cartilage of the trochlear groove. The microfracture was created using 18 gauge needles; two 3 mm deep microfractures were made through the subchondral bone at the base of the defect, one proximally and one distally. Each microfracture hole was approximately 1.5 mm in diameter and the holes separated by 2 mm. The experiment consisted of the following six treatment groups, with 10 animals in each group for a total of 60 rabbits (Table 2). Rabbits in Groups 3, 4, 5 and 6 were treated with intra-articular rhFGF-18 in either one cycle of three weekly injections of 100 μg of rhFGF-18 (Group 3 and 5) or one cycle of three monthly injections 100 μg of rhFGF-18 (Group 4 and 6). All animals were euthanized and necropsied 6 months after surgery. [table]"}, "[3]": {"details": "Group 4: no microfracture, 100 μg monthly x3"}, "[4]": {"details": "Group 6: microfracture, 100 μg monthly x3"}, "[5]": {"details": "microfracture, monthly for three months, non-significant"}, "[6]": {"details": "microfracture, monthly for three months, significant"}, "[7]": {"details": "microfracture, weekly for three weeks, significant"}, "[8]": {"details": "no microfracture, monthly for three months, non-significant"}, "[9]": {"details": "no microfracture, monthly for three months, significant"}}, "note": "Read-outs that look alike come from different tables or passages of the source.", "data": [{"molecule": "B1", "values": [{"measurement": "extent of injury over the tibial surface (histopathology), particularly collagen damage", "setting": "[1]; 10 μg IA, all regimens", "value": "generally increased"}, {"measurement": "severity of injury over the tibial surface (histopathology)", "setting": "[1]; 10 μg IA, all regimens", "value": "reducing its severity"}, {"measurement": "structural benefit", "setting": "[1]; bi-weekly injection scheme, 10 μg IA", "value": "provides interesting structural benefits"}, {"measurement": "structural benefit (joint scores, tibial cartilage degeneration width; FIGS. 3, 4, 5)", "setting": "[1]; monthly injection scheme, 10 μg IA", "value": "highest"}, {"measurement": "side effects of treatment (histopathology)", "setting": "[1]; rat, in vivo", "value": "cartilage hypertrophy, synovitis, and synovial fibrosis"}, {"measurement": "swelling in the treated knee", "setting": "[1]; rat, in vivo", "value": "significantly increased"}, {"measurement": "overall morphology", "setting": "[1]; once every 2 weeks (days 21, 35, 49)", "value": "good overall morphology"}, {"measurement": "overall morphology", "setting": "[1]; once monthly (days 21, 49, 77)", "value": "best overall morphology"}, {"measurement": "ICRS cartilage score", "setting": "[2]; [3]", "value": "2.1+/−0.3"}, {"measurement": "animals with intercondylar groove filled with cartilage (nearly normal to slightly roughened or granular)", "setting": "[2]; [3]", "value": "6/9"}, {"measurement": "ICRS gross cartilage score", "setting": "[2]; Group 5: microfracture, 100 μg weekly x3", "value": "1.9+/−0.3"}, {"measurement": "animals with groove 50% filled up to nearly completely filled with granular to coarsely granular cartilage", "setting": "[2]; [4]", "value": "7/10"}, {"measurement": "animals with intercondylar groove filled with cartilage", "setting": "[2]; [4]", "value": "3/10"}, {"measurement": "ICRS gross cartilage score", "setting": "[2]; [4]", "value": "2.4+/−0.2"}, {"measurement": "decrease in total width of the groove lesion", "setting": "[2]; [5]", "value": 19, "unit": "%"}, {"measurement": "decrease in width of the lesion with no viable cartilage", "setting": "[2]; [5]", "value": 69, "unit": "%"}, {"measurement": "increase in central MFC thickness", "setting": "[2]; [6]", "value": 106, "unit": "%"}, {"measurement": "increase in summed scores", "setting": "[2]; [6]", "value": 76, "unit": "%"}, {"measurement": "increases (toward normal) in all scored parameters and defect fill percent", "setting": "[2]; [6]", "value": "61-97%"}, {"measurement": "increase in total width of the groove lesion", "setting": "[2]; microfracture, weekly for three weeks", "value": 5, "unit": "%"}, {"measurement": "decrease in width of the lesion with no viable cartilage", "setting": "[2]; microfracture, weekly for three weeks, non-significant", "value": 59, "unit": "%"}, {"measurement": "increase in central MFC thickness", "setting": "[2]; [7]", "value": 112, "unit": "%"}, {"measurement": "increase in summed scores", "setting": "[2]; [7]", "value": 53, "unit": "%"}, {"measurement": "increases (toward normal) in all scored parameters and defect fill percent", "setting": "[2]; [7]", "value": "44-69%"}, {"measurement": "degeneration in sections", "setting": "[2]; no microfracture, monthly for three months, all sections, generally focal", "value": "minimal to severe"}, {"measurement": "increase in other scores", "setting": "[2]; [8]", "value": "20-23%"}, {"measurement": "increase in total width of the groove lesion", "setting": "[2]; [8]", "value": 36, "unit": "%"}, {"measurement": "decrease in width of the lesion with no viable cartilage", "setting": "[2]; [9]", "value": 94, "unit": "%"}, {"measurement": "increase in central MFC thickness", "setting": "[2]; [9]", "value": 120, "unit": "%"}, {"measurement": "increase in defect fill percentage", "setting": "[2]; [9]", "value": 48, "unit": "%"}, {"measurement": "increase in the defect fill score", "setting": "[2]; [9]", "value": 49, "unit": "%"}, {"measurement": "sections with cartilage hypertrophy", "setting": "[2]; rabbit, in vivo", "value": "All sections"}]}]}
